According to publication PMC4899739:

Target: chicken type I interleukin-1 receptor (chicken)
Assay: SPR; BIAcore 3000, 25 °C; chicken IL-1RI (5 μg/ml in 10 mM sodium acetate, pH 5.5) immobilised on a CM5 chip by amine coupling (~370 RU); IL-1β or mutant flowed at 30 μl/min in 10 mM HEPES pH 7.2, 150 mM NaCl, 0.001% Tween-20; 90 s association and dissociation; 1:1 Langmuir fit

| Kd | Substance |
| --- | --- |
| 0.37 nM | chicken interleukin-1 beta mutant E118K (ligand) |
| 0.23 nM | chicken interleukin-1 beta mutant T117A (ligand) |
| 0.12 nM | wild-type chicken interleukin-1 beta (ligand) |
